Measurements reported in publication doi:10.1101/2021.05.01.442282 (bioRxiv, 2021).

Biological target: monomeric recombinant human ASC (Apoptosis-associated speck-like protein containing a caspase recruitment … (human, UniProt Q9ULZ3 1-195))
Experiment: limited proteolysis-coupled mass spectrometry

monomeric recombinant human ASC (Apoptosis-associated speck-like protein containing a caspase recruitment …, sequence (Q9ULZ3 whole entry): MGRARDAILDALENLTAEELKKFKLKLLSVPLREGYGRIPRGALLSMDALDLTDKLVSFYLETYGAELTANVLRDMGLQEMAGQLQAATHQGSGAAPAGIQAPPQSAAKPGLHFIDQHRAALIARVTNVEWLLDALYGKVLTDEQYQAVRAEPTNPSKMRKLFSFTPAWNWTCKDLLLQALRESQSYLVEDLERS

- binding result: binds
B1: monomeric recombinant human SAA1 (serum amyloid A1) (natural protein, UniProt P0DJI8 19-122, looked up)
chain: RSFFSFLGEAFDGARDMWRAYSDMREANYIGSDKYFHARGNYDAAKRGPGGAWAAEVITDARENIQRFFGHGAEDSLADQAANEWGRSGKDPNHFRPAGLPEKY
